Experiments:
[1] = target: T1, Human EREG (Biacore analyte) (human, UniProt O14944 63-108); assay: SPR (Biacore T100), antibody captured on Protein A, EREG as analyte, single-cycle kinetics
T1 construct: also called hEREG; human epiregulin
Procedure: (§1) The affinity and association rate constant of an anti-EREG antibody for an antigen were measured by the single-cycle kinetics method of surface plasmon resonance assay using Biacore™-T100 (GE Healthcare Japan). HBS-EP+ (GE Healthcare Japan) was used for the running buffer, and an amine coupling kit (GE Healthcare Japan) was used to covalently bond Protein A to the CM5 chip (carboxymethyl dextran-coated chip). Each anti-EREG antibody was prepared so that approximately 350 RU will be captured by Protein A. Human EREG or cynomolgus EREG used as the analyte was prepared at 0, 0.7, 1.4, 2.8, 5.6, and 11.2 nM using HBS-EP+. Measurement was carried out by first allowing Protein A to capture the antibody solution, and then at a flow rate of 30 μL/min, successively injecting each of the 0, 0.7, 1.4, 2.8, 5.6, and 11.2 nM human EREG or cynomolgus EREG solutions for three minutes to allow reaction to take place. Then, the solution was switched to HBS-EP+, and the dissociation phase was measured for 15 minutes. After completion of the dissociation phase measurement, the sensor chip was washed with 25 mM NaOH and regenerated. The measurement at zero concentration was similarly carried out by allowing Protein A to capture the antibody solution, and performing three-minute HBS-EP+ injections successively for five times to allow reaction to take place, and then switching to HBS-EP+ to measure the dissociation phase for 15 minutes. After completion of the dissociation phase measurement, the sensor chip was washed with 25 mM NaOH and regenerated. A data analysis software exclusively for Biacore, Biacore T100 Evaluation Software Version 2.0.1, was used to perform kinetic analyses to calculate the association rate constant (kₐ), dissociation rate constant (kd), and the rate constant ratio from the obtained sensorgrams. To correct for the day-to-day differences in the measurement values, FIGS. 1 to 4 and Tables 16 and 19 show ratios based on taking the value of the control sample (cH-G1/cL-k) measured on the same day as 1.

[2] = target: T2, cynomolgus EREG (Biacore analyte) (cynomolgus monkey, UniProt O14944 63-108 (human entry), limits assumed); assay: as above
T2 construct: also called cynomolgus monkey EREG; cEREG
T2 sequence (O14944 other isoform, or with tags, fused parts or gaps limits assumed): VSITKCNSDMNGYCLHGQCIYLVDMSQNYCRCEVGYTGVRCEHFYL
Procedure: as §1

[3] = target: T3, hsEREG-His (mature human EREG-6His fusion protein) (human, UniProt O14944 30-108); assay: cell-based or functional assay
T3 sequence: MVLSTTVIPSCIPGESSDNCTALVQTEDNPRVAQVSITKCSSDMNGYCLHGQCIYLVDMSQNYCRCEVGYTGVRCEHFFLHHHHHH

[4] = target: T2, cynomolgus EREG (Biacore analyte); assay: SPR (Biacore T100); KD for monkey EREG over KD for human EREG
Procedure: as §1

[5] = target: T2, cynomolgus EREG (Biacore analyte); assay: SPR (Biacore T100), antibody captured on Protein A, EREG as analyte; KD for monkey EREG over KD for human EREG
Procedure: as §1

B1: H240-G1d/L53-k (antibody, human IgG1, kappa, V domains shown)
VH: QDQLVQSGAEVKKPGASVKVSCKASGFNIKDTYIQWVRQAPGQGLEWMGRIDPLRKQTKYREKFEGRVTITADTSTNTAYMELSSLRSEDTAVYYCVRSGREFDYWGQGTLVTVSS
VL: DIQMTQSPSSLSASVGDRVTITCRASQDIHKYIAWYQQKPGQAPRLLIQYTSTLQPGVPSRFSGSGSGTDYTFTISSLQPEDIATYYCLQYDNLRTFGGGTKVEIKR
B1 showed a Kd [1] of 270 pM, a koff [1] of 0.00011 s⁻¹ and a kon [1] of 420000 M⁻¹ s⁻¹. For the same binder, the Kd [2] was 1500 pM, the koff [2] was 0.00089 s⁻¹ and the kon [2] was 610000 M⁻¹ s⁻¹. For the same binder, the “IC50 (read off the curve), growth ratio of EGFR_BAF cells with hsEREG-His 2.5 ng/mL” value (“IC50 (read off the curve), growth ratio” below) [3] was about 0.4 µg/mL and the “cEREG (nM)/hEREG (nM)” value [4] was 5.4 ratio.

B2: H240-G1d/L73-k (antibody, human IgG1, kappa, V domains shown)
VH: QDQLVQSGAEVKKPGASVKVSCKASGFNIKDTYIQWVRQAPGQGLEWMGRIDPLRKQTKYREKFEGRVTITADTSTNTAYMELSSLRSEDTAVYYCVRSGREFDYWGQGTLVTVSS
VL: DIQMTQSPSSLSASVGDRVTITCRASQDIHKYIAWYQQKPGQAPRLLIQYTSTLQPGVPSRFSGSGSGTDYTFTISSLQPEDIATYYCLQYEQLRTFGGGTKVEIKR
For B2, the Kd [1] was 220 pM, the koff [1] was 7.7e-05 s⁻¹ and the kon [1] was 340000 M⁻¹ s⁻¹. For the same binder, the Kd [2] was 870 pM, the koff [2] was 0.00029 s⁻¹ and the kon [2] was 340000 M⁻¹ s⁻¹. The “IC50 (read off the curve), growth ratio” value [3] was about 0.5 µg/mL and the “cEREG (nM)/hEREG (nM)” value [4] was 3.6 ratio.

B3: chimeric antibody EP27 (cH-G1/cL-k) (antibody, human IgG1, kappa, V domains shown)
VH: EDQLQQSGAELVKPGASVKLSCTASGFNIKDTYIQWVKLRPEQGLEWIGRIDPLNGNTKYVPKFQGKATITADTSSNTAYLQLSSLTSEDTAVYYCVRSGTLFDFWGQGTTLTVSS
VL: DIQMTQSPSSLSASLGGKVTITCKASQDIHKYIAWYQHKPGKGPRLLIQYTSTLQPGIPSRFSGSGSGRDYSFSISNLEPEDIATYYCLQYDNLRTFGGGTKLEIKR
notes: mouse EP27 variable regions with human IgG1 (G1) and kappa constant regions; also called chimeric EP27
For B3, the “cEREG KD (nM)/hEREG KD (nM)” value [5] was 40.9 ratio, the Kd [1] was 200 pM and the koff [1] was 0.00022 s⁻¹. For the same binder, the kon [1] was 1.1e+06 M⁻¹ s⁻¹, the Kd [2] was 5200 pM and the koff [2] was 0.0052 s⁻¹. The kon [2] was 990000 M⁻¹ s⁻¹, the “IC50 (read off the curve), growth ratio” value [3] was about 0.7 µg/mL and the “cEREG (nM)/hEREG (nM)” value [4] was 40.9 ratio.

— patent US20160159919A1 (Chugai, published 2016)
